Laboratory results taken from patent US20240034762A1 (YALE UNIVERSITY, published 2024).
No end group written: not given here.

T1: soluble extracellular domain of human α-Klotho (aa 1-980) fused to a 6xHis tag (human, UniProt Q9UEF7 34-980)
T1 construct: Secreted from HEK293 EBNA cells; also called sKLA; soluble α-Klotho
T1 sequence: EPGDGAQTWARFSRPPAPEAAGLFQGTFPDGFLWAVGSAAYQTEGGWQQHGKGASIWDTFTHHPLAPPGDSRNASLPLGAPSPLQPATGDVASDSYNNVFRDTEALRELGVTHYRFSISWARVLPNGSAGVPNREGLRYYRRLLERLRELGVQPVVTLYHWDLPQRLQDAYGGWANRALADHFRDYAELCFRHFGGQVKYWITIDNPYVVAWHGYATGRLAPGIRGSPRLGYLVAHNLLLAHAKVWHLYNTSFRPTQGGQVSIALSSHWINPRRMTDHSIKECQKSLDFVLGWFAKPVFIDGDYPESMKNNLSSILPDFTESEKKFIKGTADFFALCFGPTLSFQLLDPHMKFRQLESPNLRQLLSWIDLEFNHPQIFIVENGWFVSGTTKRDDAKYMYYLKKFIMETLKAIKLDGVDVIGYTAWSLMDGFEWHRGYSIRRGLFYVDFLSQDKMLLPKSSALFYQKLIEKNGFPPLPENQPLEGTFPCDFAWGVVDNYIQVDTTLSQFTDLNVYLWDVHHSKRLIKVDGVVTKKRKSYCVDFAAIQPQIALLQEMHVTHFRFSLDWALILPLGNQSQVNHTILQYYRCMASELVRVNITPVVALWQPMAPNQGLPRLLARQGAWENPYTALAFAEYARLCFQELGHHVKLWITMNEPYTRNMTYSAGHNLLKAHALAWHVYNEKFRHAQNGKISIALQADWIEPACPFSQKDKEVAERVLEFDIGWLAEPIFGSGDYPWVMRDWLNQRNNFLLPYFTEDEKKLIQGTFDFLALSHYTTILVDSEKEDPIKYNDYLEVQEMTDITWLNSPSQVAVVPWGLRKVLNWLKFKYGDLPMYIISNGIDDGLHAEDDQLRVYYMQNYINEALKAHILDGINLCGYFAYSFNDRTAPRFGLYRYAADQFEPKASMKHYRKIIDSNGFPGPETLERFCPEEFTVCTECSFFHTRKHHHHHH

T2: full-length human α-Klotho with a C-terminal HA-tag on HEK293 cells stably co-expressing FGFR1c (human) (UniProt Q9UEF7)
T2 sequence: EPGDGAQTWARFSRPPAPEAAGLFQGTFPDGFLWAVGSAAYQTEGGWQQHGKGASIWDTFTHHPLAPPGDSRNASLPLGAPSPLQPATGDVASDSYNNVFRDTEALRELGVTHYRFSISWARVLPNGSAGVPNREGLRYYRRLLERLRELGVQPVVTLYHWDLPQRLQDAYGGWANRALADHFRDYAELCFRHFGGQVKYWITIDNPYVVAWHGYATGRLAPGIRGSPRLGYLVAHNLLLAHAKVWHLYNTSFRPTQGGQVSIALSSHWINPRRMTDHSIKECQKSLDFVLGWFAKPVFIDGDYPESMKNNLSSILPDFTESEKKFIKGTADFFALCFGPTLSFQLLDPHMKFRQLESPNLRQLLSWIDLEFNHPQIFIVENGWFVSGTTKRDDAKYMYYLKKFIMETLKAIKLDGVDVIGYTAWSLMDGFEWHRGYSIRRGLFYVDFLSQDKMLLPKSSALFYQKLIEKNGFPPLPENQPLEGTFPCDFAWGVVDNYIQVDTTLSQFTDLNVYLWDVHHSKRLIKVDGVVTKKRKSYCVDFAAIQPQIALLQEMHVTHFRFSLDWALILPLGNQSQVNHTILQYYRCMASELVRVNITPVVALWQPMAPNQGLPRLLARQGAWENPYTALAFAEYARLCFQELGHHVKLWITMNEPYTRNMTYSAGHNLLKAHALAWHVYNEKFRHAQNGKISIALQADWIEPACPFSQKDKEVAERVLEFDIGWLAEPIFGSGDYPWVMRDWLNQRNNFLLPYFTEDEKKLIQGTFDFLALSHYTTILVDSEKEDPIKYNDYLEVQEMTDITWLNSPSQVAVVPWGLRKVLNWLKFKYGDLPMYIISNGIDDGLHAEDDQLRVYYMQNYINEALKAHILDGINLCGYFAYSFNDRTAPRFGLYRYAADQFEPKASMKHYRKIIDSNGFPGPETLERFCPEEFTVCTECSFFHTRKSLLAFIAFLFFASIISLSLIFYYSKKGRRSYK


Columns and labels:
[1] = target: T1, soluble extracellular domain of human …; test: BLI (Octet); GST fusion captured on anti-GST biosensor, sKLA in solution at 6.25-200 nM, 1:1 fit, mean ± S.D. of 3 experiments
Protocol: (§1) Kinetic parameters and dissociation constants of sKLA binding to the various forms of full length FGF23 or GST-fused C-terminal fragments of FGF23 were studied using Bio-Layer Interferometry (BLI). Octet RED96 system (Pall ForteBio) equipped with anti-mouse IgG Fc (AMC) biosensors was used to study interactions between α-Klotho and FLAG-tagged FGF23. Biosensor tips were loaded with anti-FLAG M2 antibody (Millipore Sigma) at 5 μg/ml for 2 min, washed in BLI buffer (25 mM HEPES, 150 mM NaCl, pH 7.5, 0.002% Tween-20, 1 mg/mL BSA) for 60 s, and then loaded with FLAG-tagged FGF23 at 5 μg/ml for 4 min. Alternatively, anti-GST biosensor tips were loaded with 5 ug/ml GST fused with various FGF23 C-terminal fragments for 15 s. Subsequently, ligand-loaded sensor tips were dipped into microplate wells containing different sKLA concentrations, ranging from 6.25 nM to 200 nM in 2-fold dilutions of BLI buffer. After each binding cycle the sensor tips were regenerated with 10 mM glycine (pH 1.5). The collected data were referenced using a parallel buffer control subtraction, and sensograms were fitted globally to a 1:1 Langmuir binding model using ForteBio Data Analysis 10.0 software provided by the manufacturer.
To examine the significance of each of the two FGF23 repeats in α-Klotho binding and receptor activation, bio-layer interferometry (BLI) analyses was applied to measure the kinetic parameters and dissociation constants of each repeat alone or the entire C-terminal tail of FGF23 towards sKLA. To that end, GST-fusion proteins expressing either full length (FL) tail of FGF23 (amino acids […]), the first repeat R1 (amino acids S180-S205), or the second repeat R2 (amino acids […]) were produced in E. coli (FIG. 6) and immobilized on BLI sensors. sKLA was produced in HEK293 EBNA cells and used as an analyte in the BLI measurements (see elsewhere herein).

[2] = target: T2, full-length human α-Klotho with a C-terminal HA-tag on HEK293 cells stably co-expressing FGFR1c (human); test: cell-based or functional assay
[3] = target: T1, soluble extracellular domain of human …; test: BLI; FLAG-tagged FGF23 captured by anti-FLAG M2 on anti-mouse Fc sensors, sKLA 6.25-200 nM as analyte, 1:1 fit
Protocol: FIG. 10A: BLI sensorgrams of binding of FGF23-WT, FGF23-CS, FGF23 D188A, and FGF23-CS D188A to sKLA. Biosensors coated with anti-mouse-Fc antibody was used to immobilize anti-Flag antibody followed by capturing Flag-tagged FGF23-WT or FGF23-CS. Biosensors were then dipped into solutions containing a series of concentrations of sKLA (200, 100, 50, 25, 12.5, and 6.25 nM). The resulting sensorgrams were fitted with a 1:1 ligand:receptor binding model to calculate kinetic parameters and dissociation constants. FIGS. 10B-10C: HEK293 cells stably expressing FGFR1c together with α-Klotho were left unstimulated or stimulated with increasing concentrations of FGF23-WT or FGF23-CS mutant, as indicated, for 10 minutes at 37° C. Cell lysates were subjected to SDS-PAGE and analyzed for serine phosphorylation of FGFR1, tyrosine phosphorylation of FRS2 and for MAPK activation by immunoblotting with anti-FGFR1-pS, anti-pFRS2 and anti-pMAPK antibodies, respectively and with anti-MAPK as a control. FIG. 10D: Schematic diagram depicting the bivalency of the C-terminal tail of FGF23 binding to α-Klotho.
as §1

Row | Kd [1] | koff [1] | kon [1] | complete inhibition of FGF23-induced MAPK stimulation in HEK293 cells co-expressing α-Klotho and FGFR1c [2] | Binder | also measured
1 | 20 nM | 0.0041 s⁻¹ | 210000 M⁻¹ s⁻¹ | – | SAEDDSERDPLNVLKPRARMTPAPAS (other, also: GST fusion partner (recombinant, not part of given chain), Expressed in E. coli; also called GST-R1; not shown: glutathione S-transferase encoded by the pGEX4T1 vector (GE Healthcare)) [GST fusion of repeat 1 (R1, aa 180-205) of the human FGF23 C-terminal tail] | –
2 | – | – | – | 100 to 250 nM | SAEDDSERDPLNVLKPRARMTPAPAS (Fc fusion, not shown: a dimerising Fc or GST, not fully specified (N-terminus); also: dimeric Fc fusion protein, Fc-R1 junction/linker not given here) [human IgG1 Fc fused to R1 (aa 180-205) of human FGF23] | –
3 | 17 nM | 0.0034 s⁻¹ | 200000 M⁻¹ s⁻¹ | – | SAEDNSPMASDPLGVVRGGRVNTHAGGTGPEG (other, not fully specified; also: fused to glutathione S-transferase (pGEX4T1), vector linker residues not given here, The plasmid limits are used here; also called GST-R2; not shown: glutathione S-transferase encoded by the pGEX4T1 vector (GE Healthcare)) [GST fusion of repeat 2 (R2) of the human FGF23 C-terminal tail] | –
4 | – | – | – | 100 to 250 nM | {human IgG1 Fc (aa 223-449)}-SAEDNSPMASDPLGVVRGGRVNTHAGGTGPEG (Fc fusion, not shown: a dimerising Fc or GST, also: R2 given as aa 212-243 or S212-T239) [human IgG1 Fc fused to R2 of human FGF23] | –
5 | – | – | – | – | FLAG-tagged human FGF23 D188A mutant expressed in Expi293F cells (ligand) DYKDDDDKYPNASPLLGSSWGGLIHLYTATARNSYHLQIHKNGHVDGAPHQTIYSALMIRSEDAGFVVITGVMSRRYLCMDFRGNIFGSHYFDPENCRFQHQTLENGYDVYHSPQYHFLVSLGAAKAAFLPGMNPPPYSQFLSRRNEIPLIHFNTPIPRQHTQSAEDDSERAPLNVLKPRARMTPAPASCSQELPSAEDNSPMASDPLGVVRGGRVNTHAGGTGPEGCRPFAKFI | Kd [3]: 13 nM; koff [3]: 0.0036 s⁻¹; kon [3]: 280000 M⁻¹ s⁻¹
